{
  "source": "the nanobody polyreactivity screen of Harvey et al. (2022)",
  "data": [
    {"experiment": "yeast display, Sf9 membrane polyspecificity reagent, FACS + sequencing; frameworks hold sequencing errors", "method_in_brief": "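Genes from sorted yeast were amplified by colony PCR, read by MiSeq 2 × 250 sequencing and filtered on CDR length. These cells carried a synthetic nanobody library in Saccharomyces cerevisiae BJ5465 and were sorted by FACS into low and high (top ~1%) gates on anti-HA and streptavidin fluorescence. Polyreactivity is labelled according to the gate of origin.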", "values": [
      {"sequence": "QVQLQESGGGLVQAGGSLSLRCSASRNITRSSDLGWYHQAPGKEREFVASITSGGTTYYADSVKGRFTISRDNAKNTVYLEMNSLKPEDTAVYYCAVGDQADAEFGYWGQGTQVTVSS", "polyreactivity (PSR sort gate)": "low polyreactivity"},
      {"sequence": "QVQLQESGGGLVQAGGSMRLSCAASGYFSNYYSMGLYRQAPGKERELVAGIGTGTSTYYADSVKGRFTISRDNAKNTVYQQMNSLKPEDTAVYYCAAPLDTSSRIFDYWGQGTQVTVSS", "polyreactivity (PSR sort gate)": "low polyreactivity"},
      {"sequence": "QVQLQESGGGLVQAGGSMRLSCAASGYNTIEVTRAGFSRRRAKNANLLPLLITVVLPIKRIAQNTISRDNAKNTVYLQMNSLKPEDTAVYNCAANTIGTDLYEYWGQGTQATVSS", "polyreactivity (PSR sort gate)": "low polyreactivity"},
      {"sequence": "QVQLQESGGGLVQAGGSMRLSCAPRGSIYELRPMGWNRQAPGKESELVAGISTGGSTNYADCVIGRFTISRDNAKYSVYLQMNSLKPEDSAVYYCAAASYGEGTYDYWGQGTQVTVRS", "polyreactivity (PSR sort gate)": "high polyreactivity"},
      {"sequence": "QVQLQESGGGLVQAGGSPRLSCAASDNIFPDSVMCWYRQAPGNERELVATIGFGATTNYADSVKGRFTISRDNAKNTVYLQMNSLKTEYTAVYYCAADPLNFDYFCYWGQGTQVTVSS", "polyreactivity (PSR sort gate)": "low polyreactivity"},
      {"sequence": "QVQLQESGGGLVQAGGSQRLSCAASGYIFYFQYMGWYRKAPGKEREFVAAISDGANTNYADSVKGRFTISRDNAKNTEYLQLNSLKPEDTAVYYCAVYADENYYYIYWGQGTQVNVSS", "polyreactivity (PSR sort gate)": "low polyreactivity"},
      {"sequence": "QVQLQESGGGLVQAGGSQRLTCAASVYIFYFQYMGWYRQAPGKEREFVAAMSDGANTNYADSVKGRFTISRDNAKNTESLQMNSLKPEDTAGYYCAVYADENYYYIYGGQGTQVTVSS", "polyreactivity (PSR sort gate)": "low polyreactivity"},
      {"sequence": "QVQLQESGGGLVQAGGVLRLSCAASGTISGPHVMGWYRQAPGKEREFVAAINDGANTYYADNVKGRFTISRDNAKNTVYLQMNILKPEDTAVYYCAAVFYGDIGHEYWGQGTQVTVSC", "polyreactivity (PSR sort gate)": "low polyreactivity"},
      {"sequence": "QVQLQESGGGLVQAGRSQRLSCAASGYIFYFQYMGWYRQAPGKEREFVAAISDGANTNYADSVKGRFTISRDNAKNSEYLQMNSLKPEDTAVYYCAVYADENYYYIYWGQGTQVTVSS", "polyreactivity (PSR sort gate)": "low polyreactivity"},
      {"sequence": "QVQLQESGGGLVQAGVSLRLSCAASGTIFTARFMAWYRQAPGKERELVATITDGGNTNHADSVKGRFSISRDNAKNTVSLQMNSLKPEYAAVYYCAAGEVDNDTLLFWGQGSQVTVSS", "polyreactivity (PSR sort gate)": "low polyreactivity"},
      {"sequence": "QVQLQESGGGLVQARGSLRLICAASGNISVTGFMGWYRQAPCKERELVASIGIGGTTYYADSVKGRFSISRDNAKNTVYLQMNSLKPEDTAVYYCAARYLYYAYSYWGQGTQVTVIS", "polyreactivity (PSR sort gate)": "low polyreactivity"},
      {"sequence": "QVQLQESGGGLVQARGSLRLSSAASGYISYLDFMGWYGQAPGKERELVAGITTGATTNYADSVKGRFTISRDNAKNIVYQQINSLKQEDTAVYYCARGTEVKSGISYRFYYWGQGTQVTVSS", "polyreactivity (PSR sort gate)": "low polyreactivity"},
      {"sequence": "QVQLQESGGGLVQASGSLRLSCAASGNIFPDYVMGWYRLAPGKEREFVANITGGSTTNYADSVKGRFTIIRDNAKNTVYLQMNSLKAEDTAVYYCAVNFGTVVLYLYWGQGTQVTVSS", "polyreactivity (PSR sort gate)": "high polyreactivity"},
      {"sequence": "QVQLQESGGGLVQSGGSLRLSCAASGYISSWYPMGWYRHAPGKEREFVATIAPGATTYYADSVKGRFTISRDYAKNTVYLQMNSLKPEDTAVYYCAAGPENNDFYSYWGQGTQVTVSS", "polyreactivity (PSR sort gate)": "low polyreactivity"},
      {"sequence": "QVQLQESGGGLVQVGGSLRLTCAASGTIFIYGFLGWNRQAPGKERELVASINLGGITNYADSVKGRFTISRDNAKNTVYLQMISLKPEDTAVYYCAAYVVTGQNYGYWGQGTQVTVSS", "polyreactivity (PSR sort gate)": "low polyreactivity"},
      {"sequence": "QVQLQESGGGMVQAGGSLRLSCAASGYISWADYMGWYRQAPGKERELVAGIGYGSTTYYADSVKGRFTISRDNAKNTAYLQMNSLKPEDTAVYYCAVGWYRVTAYKYWGQGTQVTVSS", "polyreactivity (PSR sort gate)": "low polyreactivity"},
      {"sequence": "QVQLQESGGGMVQAGGSQRLSCAASGYISWADYMGWYRKATGKERELVAGIGYGSTTYYADSVKGLFTISRDNANNTAYLQMNSLKPEDTAVYYCAVGWYRDTAYKYWGQGTQVTVSS", "polyreactivity (PSR sort gate)": "low polyreactivity"},
      {"sequence": "QVQLQESGGGPVLAGGSLRLSCAASGTIFVRLDMGWYRQAPGKEREFVATIGSGSSTYYADSVKGSFTISRDNVKNPVYLQMNSLKPEDTAVYYCAVSAAEQSRHYYWDQGTQVTVSS", "polyreactivity (PSR sort gate)": "low polyreactivity"},
      {"sequence": "QVQLQESGGGQVQAGGSLRLSCAASGTIFLYAFMGWYRQAPGKERELVAAIDVGTTTNYADSVKGRFTISRDNAKNTVYLQMNSLKPEDTAVYYCAAPYVSWDYRYYYWGQGTQVTVSS", "polyreactivity (PSR sort gate)": "low polyreactivity"},
      {"sequence": "QVQLQESGGLVQAGGLRLSSAASGSVSYQEAMGWYRQAPGKERELVATISFGANTNYADSVKGRFTISRDNAKNTVYLQMNSLKPEDTAVYYCAAESLFDDYYGYWGQGTQVTVSS", "polyreactivity (PSR sort gate)": "low polyreactivity"},
      {"sequence": "QVQLQESGGLVQAGGMRLSCEASGSVSYQEAMGWYRQAPGKERELVATISFGANTNYADIVKGRFTISRDNAKNTVYLQMNSLKPEDTAVYYCAAESLFDDYYGYWGQGTQVTVSS", "polyreactivity (PSR sort gate)": "low polyreactivity"},
      {"sequence": "QVQLQESGGRLVQAGVSLRLSCAASGSIYDDTYMGWYRQAPGKERELVATIDSGSTTNYADSVKGRITISRDNAKNTVYLQMNSLKPEDTAVYYCAAADSHIDYFDYWGQGTQVTVSS", "polyreactivity (PSR sort gate)": "low polyreactivity"},
      {"sequence": "QVQLQESGGRMVQAGGSLRLSCAASGYISWADYKGWYRQAPGKERELVAGIGYGSTTYYADSVKGRFTISRDNAKNTSYLQMNSLKPEDTAVYYCAVGWYRDSAYKYWGQGTQVTVSS", "polyreactivity (PSR sort gate)": "low polyreactivity"},
      {"sequence": "QVQLQESGGVQAGGSLRLSCAASGYISRSDVKGWYRQAPGKERELVATINNGTITYYADSVKGRFTISRDNAKNTVYLQMNSLKPEDTAVHYCAVVQSDTDSLYYWGQGTQVTVSS", "polyreactivity (PSR sort gate)": "low polyreactivity"},
      {"sequence": "QVQLQESGGVQVQAGGSLRLSCAASGYISTHYFMGWYRQAPGKDREFVAGISNGSITNYADSVKGRFTISRDNARNTVYLQMNSLKPEDTAVYYGAAYEWTYVRFGYWGQGTLVTVSS", "polyreactivity (PSR sort gate)": "high polyreactivity"},
      {"sequence": "QVQLQESGRGLVQAGGSLRLSCAASGYISYFVGMGWYRQAPGKEREFVASIADGSNTYYADSVKGRFTISRDNAKNTVCLQRNSLKPEVTAVYYCAVEDSWTYRFDYWGEGTQVTVSS", "polyreactivity (PSR sort gate)": "high polyreactivity"},
      {"sequence": "QVQLQESGRRPGAAGGSPRMSCAASGNIFWVAVMGRYRQAPGKERELVASIGFGCTTYYADSVKCRFTISRDNAKNTVFLQLISLKPEDTAVYYCAAPLYDWGELDDWGQGTQVPVSS", "polyreactivity (PSR sort gate)": "low polyreactivity"},
      {"sequence": "QVQLQESGRRPGAAGGSPRMSCAASGNIFWVAVMGRYRQAPGKERELVASIGFGCTTYYADSVKCRFTISRDNAKNTVYLQMISLQPEDTAVYYCAAPHYDWGELDYWGQGTQVPVSS", "polyreactivity (PSR sort gate)": "low polyreactivity"},
      {"sequence": "QVQLQESRGGLVQEGGSLRLSSAASGNISPPAHMGWYRPAPGKQRELVASIGNGRTTNYADSVKGRFTISRHNANNTVYLQMYSLKPDETAVYYCSAVRYEYNPYDYWGQGTQVTVSS", "polyreactivity (PSR sort gate)": "low polyreactivity"},
      {"sequence": "QVQLQESRGGQVQEGGSLRLSCAASGNISPPADMGWYRQAPGKERELVASIGTGGTTNYADSVKGRFTISRDNAKNTVYLQMKSLKPDDTAVYYCAAVRFEYNPYDYWGQGTQVTVSS", "polyreactivity (PSR sort gate)": "low polyreactivity"},
      {"sequence": "QVQLQESVGGLVQAGGSLRLSCAASGNIFPTDRMGWYRQAPGKELEFVATNSHGGSTNYADSVKGRFTISRDNAKNTVYLQMNSLKPEDTAVYYCAVWSLGRWRHYYWGQGTQVTVSS", "polyreactivity (PSR sort gate)": "low polyreactivity"},
      {"sequence": "QVQLQESVGGLVQAGGSLRLSCAASGTIFRISDMGSYRQAPGKEREFVAAITYGANTYYADSGKGRFTISRDNAKNTVYLQMNSLKPEDTAVYYCAVPPVKETILDYWGQGTQVTVSS", "polyreactivity (PSR sort gate)": "low polyreactivity"},
      {"sequence": "QVQLQESVGGLVQAGGSLRLSCAATGTIFTDRFMGWYRQAPGKERELVAGISQGTSTNYADSVKGRFTISRDNAKNTVYLQMNSLKPEDTAVYYCAADLSTGNTLPYWGQGTQVTVSS", "polyreactivity (PSR sort gate)": "high polyreactivity"},
      {"sequence": "QVQLQESVVGLVQAGGSLRLSCAASGNIIPTDRMGWYRQAPGKELEFVATISHGGSTNYADSVKGRFTISRDNAKNTVYLQMNSLKPEDTAVYYCAVWSLGSWRHYYWGQGTQVTVSS", "polyreactivity (PSR sort gate)": "low polyreactivity"},
      {"sequence": "QVQLQGSGGGLVQAGGSLRLSCAASGYIFQNVPMGWNRQAPCKERELVAGIDNGTSTNYADSVNGRFTISRDNAKNTVYLQMNSLKPEDTAVYYCAAAGQADDTLGYWGQGTQVTVSS", "polyreactivity (PSR sort gate)": "low polyreactivity"},
      {"sequence": "QVQLQGSGGGLVQAGGSLRLSCAASGYIFQNVPMGWNRQAPGKERELVAGIDNGTSTNYADSVNGRFTISRDNAKNTVYLQMNSLNPVDTAVYYCAAAGQADDTLGYWGQGTQVTVSS", "polyreactivity (PSR sort gate)": "low polyreactivity"},
      {"sequence": "QVQLQGSGGGLVQSGGSLRLSCAASGKIFDADIMGWYRQAPGKESELVASITHGGSTNYADSVKGRFTISRDNAKNNVYLQMNSLIQEDTAVYYCAAIAYPDIPTYFDYDSDCFYWSQGTQVTVSS", "polyreactivity (PSR sort gate)": "high polyreactivity"},
      {"sequence": "QVQLQLSGGDLVQAGRSLRLSCAASGTIYGLTSMGWYRQAQAKEREFVAAITDGGKTNYADSVKGRFTISRDNAKNTVYLQMIRLKPEDTAVYYCAVLFSDDAYYAYWGQGTQVTVSS", "polyreactivity (PSR sort gate)": "low polyreactivity"},
      {"sequence": "QVQLQVRGGDLVQAGGSLRLSCAASGTIYRLTTMGWYRQAPGKEREFVAAITDGGNTNYADSVKGRFTISRDNAKNTVYLQMICLKPEDTAVYYCAVLFSDDAYYAYWGQGTQVTVSS", "polyreactivity (PSR sort gate)": "low polyreactivity"},
      {"sequence": "QVQLQVSGGHLVQAGGSLRLSCAASGTIYGLTSMGWYSQAPGKEREFVAAITDGGNTNYADSVKGRFTISRDNAKNTVYLQMISLKPEDTSVYYCAFLFSDDAYFAYWGQGTQVTLSS", "polyreactivity (PSR sort gate)": "low polyreactivity"},
      {"sequence": "QVQLRESGAGGRQPAPELRGERQYFYWSADGLVSQPPGKEREFVAGIDRGTITNYADSVRGRFTISRDNAKNTVYLQMNSLKPEDTAVYYCNAEYRRRPKLGDEDEYWGHGTQVTVSS", "polyreactivity (PSR sort gate)": "high polyreactivity"},
      {"sequence": "QVQLVASAAGLVQAVGSLRLSCAASASTIGYYAMGWSRQAPGKERELVAAISWSGGSTYYADSVKGRFTISRDNAKNTVYLQMNSLKPEDTAVYFCAADTYPDYYLVEYYYWGQGTQVTVSS", "polyreactivity (PSR sort gate)": "low polyreactivity"},
      {"sequence": "QVQLVASGGGLVQAGGSLRLSFAASGRNFAYNTMGWYRQAPGKERELVAAITWSGGGKYYADSVKGRFTISRDNAKNTVYLHMNSLKPEDTAVYYCAVVYASPRARYRYYYWGQGTQVTVSS", "polyreactivity (PSR sort gate)": "low polyreactivity"},
      {"sequence": "QVQLVASGGRLVQAGGSLRLSCASSGSIFGWYAMGWYRQAPGKERELVAVITSGGSTYYADSVKGRFTISRDNAKNTVYLQMNSLKPVDTAVYYCNARYHAGYKGYNYWGQGTQVTVSS", "polyreactivity (PSR sort gate)": "high polyreactivity"}
    ]}
  ]
}
